Experimental data reported in PMC10099707.

Target: HDAC4 (mouse (endogenous in hippocampal tissue)) (UniProt Q6NZM9)
Assay: co-IP

Chain of UniProt Q6NZM9 (Q6NZM9 whole entry): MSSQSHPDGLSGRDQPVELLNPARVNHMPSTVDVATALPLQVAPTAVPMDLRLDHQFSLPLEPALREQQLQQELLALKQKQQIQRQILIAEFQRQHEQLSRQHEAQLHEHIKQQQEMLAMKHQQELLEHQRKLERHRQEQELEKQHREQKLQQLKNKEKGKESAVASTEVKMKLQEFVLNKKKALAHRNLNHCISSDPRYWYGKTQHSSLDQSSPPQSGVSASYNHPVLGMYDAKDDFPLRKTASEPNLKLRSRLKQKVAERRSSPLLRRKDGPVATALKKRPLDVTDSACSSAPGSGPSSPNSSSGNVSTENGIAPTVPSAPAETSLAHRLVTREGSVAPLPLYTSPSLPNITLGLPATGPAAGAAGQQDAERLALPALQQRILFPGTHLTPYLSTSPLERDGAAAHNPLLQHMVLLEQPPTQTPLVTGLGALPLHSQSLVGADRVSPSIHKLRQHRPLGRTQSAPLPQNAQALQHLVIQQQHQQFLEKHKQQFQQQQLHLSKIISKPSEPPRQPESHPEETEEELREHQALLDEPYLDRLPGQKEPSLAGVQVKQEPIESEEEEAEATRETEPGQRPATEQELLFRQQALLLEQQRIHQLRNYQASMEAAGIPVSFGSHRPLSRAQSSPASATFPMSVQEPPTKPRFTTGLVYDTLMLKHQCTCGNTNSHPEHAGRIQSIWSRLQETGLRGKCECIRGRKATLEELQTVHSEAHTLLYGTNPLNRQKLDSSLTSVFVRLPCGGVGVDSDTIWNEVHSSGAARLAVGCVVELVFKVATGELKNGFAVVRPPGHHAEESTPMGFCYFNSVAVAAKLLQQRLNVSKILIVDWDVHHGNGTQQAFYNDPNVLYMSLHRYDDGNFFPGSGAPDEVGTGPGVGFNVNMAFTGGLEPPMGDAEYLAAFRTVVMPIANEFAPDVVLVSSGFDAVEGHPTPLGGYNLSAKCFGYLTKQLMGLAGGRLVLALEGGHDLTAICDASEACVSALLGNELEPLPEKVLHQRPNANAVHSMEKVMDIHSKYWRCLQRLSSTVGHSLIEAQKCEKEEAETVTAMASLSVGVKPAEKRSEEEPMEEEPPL

fold change AD vs WT of the co-IP band ratio CaMKII/HDAC4 (fold (AD vs WT)): 0.61
Substance: Ca2+/calmodulin‐dependent protein kinase II (CaMKII) (from UniProt P11798 1-478) (enzyme)
